Article PMC3355305, “Localized Dimerization and Nucleoid Binding Drive Gradient Formation by the Bacterial Cell Division Inhibitor MipZ” (Molecular Cell, 2012)
Read-outs that look alike come from different tables or passages of the source.

Molecular target: MipZ dimer
Assay: Effect of ParB and parS-containing plasmid DNA on the ATPase activity of MipZ
Format: biochemical, Caulobacter crescentus
Details: for Kd: read-out: K
Description: Figure 3 Interaction of MipZ with FtsZ and ParB (A) Effect of different mutations on the activity of MipZ. Strains MT177 (WT), DK2 (K13A), MT178 (G14V), MT179 (K18Q), and MT197 (D42A) were cultivated for 8 hr in conditions that prevent expression of wild-type mipZ while inducing expression of the indicated mipZ-yfp allele (the scale bar represents 2 μm). (B) Effect of MipZ and its mutant derivatives on the GTPase activity of FtsZ. Shown are the turnover numbers (kcat) of FtsZ in the absence of additional proteins (–) or in the presence of different MipZ variants or BSA. Data represent the average of at least three independent experiments (±SD). (C and D) SPR analysis of the interaction between MipZ and ParB. ParB (3800 RU) was immobilized on a sensor chip and probed with the indicated MipZ proteins (6 μM) in the presence of ADP (C) or ATP (D). (E) Colocalization of mutant MipZ variants with ParB. Strains DK3 (K13A), DK5 (G14V), DK6 (K18Q), and DK7 (D42A) were induced for 8 hr to synthesize CFP-ParB and the indicated MipZ-YFP variants in place of wild-type MipZ (the scale bar represents 2 μm). […] (F) Two-hybrid analysis of the interaction between MipZ and ParB. E. coli BTH101 was transformed with pairs of plasmids encoding the indicated derivatives of the T18 and T25 fragments of adenylate cyclase, respectively. Interaction is evidenced by the formation of red colonies. Positive control (+): T25-zip:T18-zip. (G) Effect of ParB on the ATPase activity of MipZ. The average turnover number (kapp) of MipZ was determined over a range of different MipZ concentrations. When appropriate, the reactions were supplemented with ParB and/or parS-containing plasmid DNA (pMT428; 3.6 kb). The data were approximated by the model used in Figure 2F, yielding the following K and kcat values: MipZ alone (7.1 μM and 0.61 min^−1), + ParB (2.6 μM and 0.77 min^−1), + DNA (6.0 μM and 1.5 min^−1), + ParB and DNA (1.6 μM and 1.6 min^−1). See also Figure S4.
Previous work has shown that, in the presence of parS-containing DNA, ParB stimulates the ATPase activity of ParA/Soj up to 60-fold ([Leonard et al., 2005; Scholefield et al., 2011]), probably by accelerating the rate of nucleotide hydrolysis. […] To clarify this issue, we reanalyzed the concentration dependence of MipZ's ATPase activity (compare Figure 2F) in the presence of both ParB and/or a plasmid that carried a chromosomal fragment containing all predicted C. crescentus parS sites (Figure 3G). […] Consequently, the MipZ dimer might be able to interact with DNA independently of ParB (as detailed below), leading to conformational adjustments that enhance its hydrolytic potential. […] Collectively, these findings argue against a role of ParB as an ATPase-activating factor. […]
obtained from crystals flash frozen in a solution of 95% 2 mM, sa mp le s were taken and analyzed for the amount ethanol/50 mM Tris (pH 8.5), and collected at ID23-2, of [α-32P]-GDP produced in the reaction as described ESRF (Grenoble, France). For apo-MipZ in crystal above. form 2, 768 standard conditions were screened in 200 nl To analyze the concentration dependence of MipZ’s sitting drops using a Microsys 4004 Cartesian robotics ATPase activity, varying amounts of MipZ were system and MipZ at a concentration of 10 mg/ml. incubated in buffer P containing 2 mM [α-32P]-ATP and Crystals obtained in a buffer containing 100 mM Hepes 0.3 mg/ml bovine serum albumin and assayed for (pH 7.5), 10% PEG 10000, 4% ethylene glycol and 30% hydrolytic activity as described above. glycerol were flash-frozen, and data were collected at To determine the effect of ParB on MipZ’s ATPase ID23-1, ESRF. activity, varying amounts of MipZ were incubated with All crystals were indexed and integrated using the ParB (4.5 µM) and/or plasmid pMT428 (3.6 kb, 0.2 MOSFLM package and further processed using the µM), which bears a chromosomal fragment containing […]

B1: MipZ: P loop ATPase and cell division inhibitor of Caulobacter crescentus; hexahistidine-tagged in vitro, YFP fusion in FRAP (protein)
chain: MAETRVIVVGNEKGGAGKSTIAVHLVTALLYGGAKVAVIDLDLRQRTSARFFENRRAWLDNKKIELPEPLALNLSDNDVALAERPEEEQVAGFEAAFARAMAECDFILIDTPGGDSAITRMAHGRADLVVTPMNDSFVDFDMLGTVDPVTLELTKPSLYSLTVWEGRKQRALSGQRQAMDWVVLRNRLATTEARNRKRLEDRLNALAKRVGFRIGPGLRDRVIYRELFPFGLTIADLSPQVRPVPVSLQHLAARQELRALMHSLGLSAYSGETMLAAQ
modifications: left off: His6, end not stated, state not stated
notes: hexahistidine-tagged in vitro, YFP fusion in FRAP
Kd (+ DNA (pMT428, 0.2 µM)): 6 µM
Kd (+ ParB (4.5 µM)): 2.6 µM
Kd (+ ParB and DNA): 1.6 µM
kcat (MipZ alone): 0.0102 s⁻¹
Kd (MipZ alone): 7.1 µM
increase in the catalytic activity of the dimeric complex (kcat) (upon addition of DNA): ~2 fold
decrease in the apparent equilibrium dissociation constant of the dimeric complex (upon addition of ParB): ~4 fold
